From publication PMC6390363, “Tau as a mediator of neurotoxicity associated to cerebral amyloid angiopathy” (Acta Neuropathologica Communications, 2019)

Target: the molecule itself
Test: SDS-PAGE and Western blot of the stirred peptide; ADan peptide 0.5 mg/mL in PBS without calcium and magnesium, stirred at room temperature for up to 48 h, aliquots at 2, 8, 24 and 48 h; blots with anti-ADan 1699 and the conformational anti-oligomer antibody F11G3

B1: ADan peptide (Danish amyloid) (peptide)
peptide: EASNCFAIRHFENKFAVETLICFNLFLNSQEKHY
notes: the C-terminal part differs from wild-type BRI2; also called ADan amyloid peptide; ADan recombinant peptide; source: synthetic peptide (ThermoFisher Scientific, Fmoc-based solid phase peptide synthesis, purified by HPLC)
- binding result: binds
